Biological target: T1, FLAG-tagged GSK3β (UniProt P49841 1-420)
T1 construct: glycogen synthase kinase-3β, expressed from a plasmid; also called FLAG-GSK3β; source: HEK-293, co-transfected, in lysate
Experiment: co-IP; HEK-293 co-transfected with HA-TGase 2 and FLAG-GSK3β at increasing TGase 2:GSK3β plasmid ratios; TGase 2-GSK3β and GSK3β-β-catenin association followed
Details: partners not purified

T1 sequence (P49841 whole entry): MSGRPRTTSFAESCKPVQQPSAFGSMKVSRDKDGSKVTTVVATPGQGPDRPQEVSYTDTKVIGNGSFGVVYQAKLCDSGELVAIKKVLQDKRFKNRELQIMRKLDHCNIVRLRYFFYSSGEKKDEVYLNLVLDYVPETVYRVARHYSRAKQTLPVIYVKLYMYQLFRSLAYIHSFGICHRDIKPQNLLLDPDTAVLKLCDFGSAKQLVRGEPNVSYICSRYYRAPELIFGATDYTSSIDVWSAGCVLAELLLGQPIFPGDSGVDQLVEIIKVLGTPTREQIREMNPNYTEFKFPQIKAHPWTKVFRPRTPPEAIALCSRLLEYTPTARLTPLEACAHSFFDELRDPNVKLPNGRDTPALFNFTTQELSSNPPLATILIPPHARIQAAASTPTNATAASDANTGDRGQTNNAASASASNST

B1: HA-tagged wild-type TGase 2 (enzyme, UniProt P21980 1-687, looked up)
chain: MAEELVLERCDLELETNGRDHHTADLCREKLVVRRGQPFWLTLHFEGRNYEASVDSLTFSVVTGPAPSQEAGTKARFPLRDAVEEGDWTATVVDQQDCTLSLQLTTPANAPIGLYRLSLEASTGYQGSSFVLGHFILLFNAWCPADAVYLDSEEERQEYVLTQQGFIYQGSAKFIKNIPWNFGQFEDGILDICLILLDVNPKFLKNAGRDCSRRSSPVYVGRVVSGMVNCNDDQGVLLGRWDNNYGDGVSPMSWIGSVDILRRWKNHGCQRVKYGQCWVFAAVACTVLRCLGIPTRVVTNYNSAHDQNSNLLIEYFRNEFGEIQGDKSEMIWNFHCWVESWMTRPDLQPGYEGWQALDPTPQEKSEGTYCCGPVPVRAIKEGDLSTKYDAPFVFAEVNADVVDWIQQDDGSVHKSINRSLIVGLKISTKSVGRDEREDITHTYKYPEGSSEEREAFTRANHLNKLAEKEETGMAMRIRVGQSMNMGSDFDVFAHITNNTAEEYVCRLLLCARTVSYNGILGPECGTKYLLNLNLEPFSEKSVPLCILYEKYRDCLTESNLIKVRALLVEPVINSYLLAERDLYLENPEIKIRILGEPKQKRKLVAEVSLQNPLPVALEGCTFTVEGAGLTEEQKTVEIPDPVEAGEEVKVRMDLLPLHMGLHKLVVNFESDKLKAVKGFRNVIIGPA
notes: transglutaminase 2, wild type, expressed from a TGM2 plasmid; also called HA-tagged wild-type TGM2; HA-tagged TGase 2; source: HEK-293, co-transfected, in lysate
For B1, the “percent decrease of the interaction with GSK3β (of β-catenin, by the legend) at TGase 2:GSK3β plasmid ratio 1:1” value was 52% and the “percent decrease of the interaction with GSK3β (of β-catenin, by the legend) at TGase 2:GSK3β plasmid ratio 1:2” value was 45%.

Source: paper PMC12876850 (Cell Death & Disease, 2026)
